Assay results reported in patent US20030017489.

Molecular target: recombinant Histone H3

B1: hCARM-1 (SEQ ID NO:9) (protein)
chain: MAAAAAAVGPGAGGAGSAVPGGAGPCATVSVFPGARLLTIGDANGEIQRHAEQQALRLEVRAGPDSAGIALYSHEDVCVFKCSVSRETECSRVGKQSFIITLGCNSVLIQFATPNDFCSFYNILKTCRGHTLERSVFSERTEESSAVQYFQFYGYLSQQQNMMQDYVRTGTYQRAILQNHTDFKDKIVLDVGCGSGILSFFAAQAGARKIYAVEASTMAQHAEVLVKSNNLTDRIVVIPGKVEEVSLPEQVDIIISEPMGYMLFNERMLESYLHAKKYLKPSGNMFPTIGDVHLAPFTDEQLYMEQFTKANFWYQPSFHGVDLSALRGAAVDEYFRQPVVDTFDIRILMAKSVKYTVNFLEAKEGDLHRIEIPFKFHMLHSGLVHGLAFWFDVAFIGSIMTVWLSTAPTEPLTHWYQVRCLFQSPLFAKAGDTLSGTCLLIANKRQSYDISIVAQVDQTGSKSSNLLDLKNPFFRYTGTTPSPPPGSHYTSPSENMWNTGSTYNLSSGMAVAGMPTAYDLSSVIASGSSVGHNNLIPLANTGIVNHTHSRMGSIMSTGIVQGSSGAQGSGGGSTSAHYAVNSQFTMGGPAISMASPMSIPTNTMHYGS
How did the “methylation of Histone H3 (in vitro methylation reaction, SDS-PAGE, exposed to film)” value turn out when B1 was run?
Its value is “Our experiments showed that hCARM-1 methylates Histone H3 efficiently”.
